Experiments:
Assay in all cases: ELISA
[1] = target: N8 NA (head domain plus stalk region) from A/gyrfalcon/41088-6/2014 (H5N8) (Influenza A virus …, UniProt A0A0C4WVM3, strain)
[2] = target: N3 NA (head domain plus stalk region) from A/swine/Missouri/2124514/2006 (H2N3) (Influenza A virus …, UniProt A9YN63, strain)
[3] = target: N1 NA head domain (residue 82-469) from A/Brevig Mission/1/1918 (H1N1) (Influenza A virus A/Brevig …, UniProt Q9IGQ6)
[4] = target: T1, N2 NA head domain from A/Japan/305/1957 (H2N2) (Influenza A virus A/Japan/305/1957 …, strain)
T1 chain: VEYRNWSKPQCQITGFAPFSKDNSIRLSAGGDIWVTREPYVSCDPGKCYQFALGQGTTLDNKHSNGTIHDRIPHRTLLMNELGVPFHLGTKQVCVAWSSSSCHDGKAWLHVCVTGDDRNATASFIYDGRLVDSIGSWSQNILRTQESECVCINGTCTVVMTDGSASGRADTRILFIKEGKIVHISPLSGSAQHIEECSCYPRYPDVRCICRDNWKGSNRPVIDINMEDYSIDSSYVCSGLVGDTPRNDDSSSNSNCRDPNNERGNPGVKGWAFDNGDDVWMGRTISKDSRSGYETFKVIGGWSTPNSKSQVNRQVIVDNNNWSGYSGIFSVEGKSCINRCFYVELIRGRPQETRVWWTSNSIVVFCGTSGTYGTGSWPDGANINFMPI

Measured: binding result

Chain of N1 NA head domain (residue 82-469) from A/Brevig Mission/1/1918 (H1N1) (Q9IGQ6 82-469): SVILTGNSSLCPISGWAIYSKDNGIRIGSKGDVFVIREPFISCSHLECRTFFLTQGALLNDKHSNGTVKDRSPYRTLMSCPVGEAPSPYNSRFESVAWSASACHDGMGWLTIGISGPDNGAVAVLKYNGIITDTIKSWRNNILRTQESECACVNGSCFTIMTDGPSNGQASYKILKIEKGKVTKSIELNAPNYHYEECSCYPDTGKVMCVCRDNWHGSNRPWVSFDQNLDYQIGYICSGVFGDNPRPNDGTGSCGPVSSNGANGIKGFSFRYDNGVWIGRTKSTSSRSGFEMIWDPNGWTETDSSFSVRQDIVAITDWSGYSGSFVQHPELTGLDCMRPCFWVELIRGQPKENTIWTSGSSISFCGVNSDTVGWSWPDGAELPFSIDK

B1: 1122A11 (human IgG1 mAb) (antibody, V domains shown)
VH: QVQLVQSGAEVSKPGASVKVSCKASGYSFTSQSLGWVRQAPGQGLEWMGIINPSGGITNYAHKFQGRVTMTRDTSTSTVYMELSSLRSEDTALYYCVRDLSHYNEVGHDRAYYYGMDIWGQGTTVTVSS
VL: SYELIQPPSVSVSPGQTASITCSGDKLGKKYTCWYQQKPGQSPVLVIYQDNKRPSGIPERFSGSNSGNTATLTISGTQAMDEADYYCQAWDSSAVVFGGGTKLTVL
binds: all assays above

Reference: publication PMC12501251 (Communications Biology, 2025)
